Self-aminoacylation data for 13 sequences are collected here from the supplement of paper PMC9233669.

One data set concerns biotinyl-Phe-oxazolone. The data set can be described thus: self-aminoacylation, catalytic enhancement (BFO) (fold over background); higher = more active; k-Seq, kA / k0A0; sequences stand for … in GGGAAUGGAUCCACAUCUACGAAUUC…UUCACUGCAGACUUGACGAAGCUG
The essentials:
(§1)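 Mutagenized RNA pools (0.43 μM; 21-nt variable region) were treated with 2–1250 μM of each biotinyl-aminoacyl-oxazolone. Conditions were 50 μL HEPES/NaCl/KCl/MgCl2/CaCl2 buffer, 5% acetonitrile, pH 6.9–7.0, room temperature, 90 minutes. Catalytic enhancement, the median kA relative to the uncatalyzed rate, was derived from streptavidin capture, qPCR and Illumina sequencing.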

The subject of a further data set is biotinyl-Ile-oxazolone. The data set is described as follows: self-aminoacylation, catalytic enhancement (BIO) (fold over background); higher = more active; k-Seq, kA / k0A0; sequences stand for … in GGGAAUGGAUCCACAUCUACGAAUUC…UUCACUGCAGACUUGACGAAGCUG
In short, it runs like this:
as §1

A further data set concerns biotinyl-Met-oxazolone. The data set is described as follows: self-aminoacylation, catalytic enhancement (BMO) (fold over background); higher = more active; k-Seq, kA / k0A0; sequences stand for … in GGGAAUGGAUCCACAUCUACGAAUUC…UUCACUGCAGACUUGACGAAGCUG
In short, it runs like this:
as §1

Another data set relates to biotinyl-Val-oxazolone. The data set is described as follows: self-aminoacylation, catalytic enhancement (BVO) (fold over background); higher = more active; k-Seq, kA / k0A0; sequences stand for … in GGGAAUGGAUCCACAUCUACGAAUUC…UUCACUGCAGACUUGACGAAGCUG
The essentials: as §1

The next data set deals with biotinyl-Leu-oxazolone. The data set is described as follows: self-aminoacylation, catalytic enhancement (BLO) (fold over background); higher = more active; k-Seq, kA / k0A0; sequences stand for … in GGGAAUGGAUCCACAUCUACGAAUUC…UUCACUGCAGACUUGACGAAGCUG
The essentials: as §1

A further data set relates to biotinyl-Trp-oxazolone. The data set can be described thus: self-aminoacylation, catalytic enhancement (BWO) (fold over background); higher = more active; k-Seq, kA / k0A0; sequences stand for … in GGGAAUGGAUCCACAUCUACGAAUUC…UUCACUGCAGACUUGACGAAGCUG
In short, it runs like this:
as §1

Variants at the floor of the assay were thinned out.

“AUUACCCUGGACAUAGAGUGA [Fam2.1 aminoacylation ribozyme variant]”: the self-aminoacylation with biotinyl-Phe-oxazolone turned out to be 100; in the data set with biotinyl-Ile-oxazolone, 6.45; in the data set on biotinyl-Met-oxazolone, 15.5; in the data set on biotinyl-Val-oxazolone, 6.12; in the data set with biotinyl-Leu-oxazolone, 15; in the data set with biotinyl-Trp-oxazolone it was 15.6.

As to “CCACACUGCAAGGAAUCGGUC [Fam1B.1 aminoacylation ribozyme variant]”, the self-aminoacylation in the data set on biotinyl-Phe-oxazolone came to 3.84; in the data set with biotinyl-Ile-oxazolone, 1.39; in the data set with biotinyl-Met-oxazolone, 1.35; in the data set with biotinyl-Val-oxazolone, 1.32; with biotinyl-Leu-oxazolone, 1.3; with biotinyl-Trp-oxazolone, 1.51.

In the case of “AUUCAUCAAGGUCAUCGGGUG [Fam2.2 aminoacylation ribozyme variant]”, the self-aminoacylation in the data set on biotinyl-Phe-oxazolone came to 74.7; in the data set with biotinyl-Ile-oxazolone it was 5.94; with biotinyl-Met-oxazolone, 9.84; in the data set with biotinyl-Val-oxazolone, 5.94; in the data set on biotinyl-Leu-oxazolone, 10.9; in the data set on biotinyl-Trp-oxazolone, 10.2.

In the case of “GAGUUUGCUAAUAGUCGCAAA [Fam3.1 aminoacylation ribozyme variant]”, the self-aminoacylation came out at 3.15 in the data set with biotinyl-Phe-oxazolone; 2.47 in the data set on biotinyl-Ile-oxazolone; 1.64 in the data set with biotinyl-Met-oxazolone; 2.15 in the data set on biotinyl-Val-oxazolone; 1.93 with biotinyl-Leu-oxazolone; 1.59 in the data set on biotinyl-Trp-oxazolone.

Consider “AUCACCCUGGUCAACGAGUGA [Fam2.1 aminoacylation ribozyme variant]”, for which the self-aminoacylation in the data set on biotinyl-Phe-oxazolone is 64.3; with biotinyl-Ile-oxazolone, 4.43; in the data set with biotinyl-Met-oxazolone, 9.31; in the data set on biotinyl-Val-oxazolone, 4.69; in the data set with biotinyl-Leu-oxazolone, 10.6; in the data set with biotinyl-Trp-oxazolone, 10.6.

As to “CCACAGUUCAAGCAAUCGGUG [Fam1B.1 aminoacylation ribozyme variant]”, the self-aminoacylation turned out to be 25.9 in the data set on biotinyl-Phe-oxazolone; 3.29 in the data set on biotinyl-Ile-oxazolone; 4.04 in the data set on biotinyl-Met-oxazolone; 3.14 in the data set on biotinyl-Val-oxazolone; 5.44 in the data set with biotinyl-Leu-oxazolone; 3.62 in the data set on biotinyl-Trp-oxazolone.

As for “CUUACCCUAGUCAUCGAGUGA [Fam2.1 aminoacylation ribozyme variant]”, the self-aminoacylation amounted to 5.25 in the data set with biotinyl-Phe-oxazolone; 2.99 in the data set on biotinyl-Ile-oxazolone; 4.55 in the data set with biotinyl-Met-oxazolone; 3.24 in the data set with biotinyl-Val-oxazolone; 5.38 in the data set with biotinyl-Leu-oxazolone; 6.07 in the data set with biotinyl-Trp-oxazolone.

On to “CUACUUCAAACAAACAGUCUG [Fam1A.1 aminoacylation ribozyme variant]”, for which the self-aminoacylation in the data set on biotinyl-Phe-oxazolone stood at 0.8; in the data set with biotinyl-Ile-oxazolone, 0.864; with biotinyl-Met-oxazolone it was 0.54; with biotinyl-Val-oxazolone it was 0.728; in the data set with biotinyl-Leu-oxazolone, 0.671; in the data set with biotinyl-Trp-oxazolone it was 0.534.

As for “AUUGACCUAGGACAUCGGGUG [Fam2.2 aminoacylation ribozyme variant]”, the self-aminoacylation in the data set on biotinyl-Phe-oxazolone was found to be 19.3; with biotinyl-Ile-oxazolone, 3.72; in the data set with biotinyl-Met-oxazolone it was 4.19; with biotinyl-Val-oxazolone it was 3.53; in the data set on biotinyl-Leu-oxazolone it was 4.56; in the data set on biotinyl-Trp-oxazolone it was 4.97.

As for “AUUCACCUAGGACAUAGGGUG [Fam2.2 aminoacylation ribozyme variant]”, the self-aminoacylation in the data set with biotinyl-Phe-oxazolone is 18.6; in the data set with biotinyl-Ile-oxazolone, 2.06; in the data set with biotinyl-Met-oxazolone, 3.54; in the data set on biotinyl-Val-oxazolone, 2.01; in the data set on biotinyl-Leu-oxazolone it was 4.7; with biotinyl-Trp-oxazolone, 3.23.

Regarding “AUUCACCUAGCUCACCGGGUG [Fam2.2 aminoacylation ribozyme variant]”, the self-aminoacylation was 16.7 in the data set on biotinyl-Phe-oxazolone; 2.15 in the data set on biotinyl-Ile-oxazolone; 3.66 with biotinyl-Met-oxazolone; 2.52 in the data set with biotinyl-Val-oxazolone; 2.64 in the data set with biotinyl-Leu-oxazolone; 2.11 with biotinyl-Trp-oxazolone.

With “AUUCACUUAGGUCAUCGGCUG [Fam2.2 aminoacylation ribozyme variant]”, the self-aminoacylation amounted to 4.69 with biotinyl-Phe-oxazolone; 1.46 in the data set with biotinyl-Ile-oxazolone; 1.47 in the data set with biotinyl-Met-oxazolone; 1.65 in the data set with biotinyl-Val-oxazolone; 1.17 with biotinyl-Leu-oxazolone; 1.45 with biotinyl-Trp-oxazolone.

For “AUUCACCUAGGUACUCGGGUG [Fam2.2 aminoacylation ribozyme variant]”, the self-aminoacylation in the data set on biotinyl-Phe-oxazolone was 29.8; in the data set with biotinyl-Ile-oxazolone, 2.15; in the data set on biotinyl-Met-oxazolone, 2.47; with biotinyl-Val-oxazolone, 2.11; in the data set with biotinyl-Leu-oxazolone it was 3.3; in the data set on biotinyl-Trp-oxazolone, 2.78.
